Reference: US20250264433A1 (STATE OF ISRAEL MINISTRY OF AGRICULTURE AND RURAL …, published 2025)

Target: Native EspB of wild-type EPEC O127:H6 strain E2348/69
Sequence (Q05129 whole entry): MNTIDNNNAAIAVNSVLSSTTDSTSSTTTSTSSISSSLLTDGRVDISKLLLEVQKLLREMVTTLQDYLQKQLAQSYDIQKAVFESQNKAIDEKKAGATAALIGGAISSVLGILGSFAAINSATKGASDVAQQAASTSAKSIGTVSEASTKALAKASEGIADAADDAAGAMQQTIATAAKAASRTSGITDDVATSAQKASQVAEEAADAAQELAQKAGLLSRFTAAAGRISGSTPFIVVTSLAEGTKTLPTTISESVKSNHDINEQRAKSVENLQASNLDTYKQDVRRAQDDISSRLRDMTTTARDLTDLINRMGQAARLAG

B1: mAb-EspB-B7 (antibody, V domains shown)
VH: EVQLLESGGGLVQPGGSLRLSCAASGFTFSHYAMNWVRQAPGKGLEWVSAINSNGDSTYYPDTVKDRFTISRDNSKNTLYLQMNSLRAEDTAVYYCARDRRAGYFDYWGQGTLVTVSS
VL: DIVLTQPPSASGTPGQRVTISCSGSRDNIGKNYVSWYQQLPGTAPKLLIYRNNQRPSGVPDRFSGSKSGTSASLAISGLRSEDEADYYCSAWDTSLNAYVFGPGTQLTVL
notes: also called mAb-B7; anti-EspB antibody
signal for EPEC WT relative to the ΔespB strain: 36%
